From the supplement of paper PMC10724198

Key:
Saccharomyces cerevisiae [1] = assay: protein stability index of tFT-peptide fusion in wild type (PSI (0-1 scale)); higher = more stable (slower turnover); conditions: genetic background: wild type
Saccharomyces cerevisiae [2] = assay: protein stability index of tFT-peptide fusion in deletion strain of DOA10 (PSI (0-1 scale)); higher = more stable (slower turnover)
Protocol: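 MPS profiling in S. cerevisiae of two library types built from selected 12-aa C-degron peptides (IN1, IN2, LN1, LN3, VN2, R1-R5, W1-W3, Atg1 and Rpa12 C-termini): saturation mutagenesis libraries and C-terminal +1 capping libraries (13 aa). Each peptide is fused to the C-terminus of a sfGFP-mCherry timer, after a GGGS linker. Cells are FACS-sorted into 8 mCherry/sfGFP bins and sequenced. PSI runs from 0 (unstable) to 1 (stable), measured once in wild type and in the das1Δ or doa10Δ background.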
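Wherever protein stability index of tFT-peptide fusion in deletion strain of DOA10 is given: PSI per variant is the weighted mean of its sequencing read distribution over the sorted stability bins, counting only variants with over 10 reads summed across bins.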
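Wherever protein stability index of tFT-peptide fusion in wild type is given: PSI derived as read-weighted mean over the 8 sorting bins, only variants exceeding 10 total reads kept, mCherry placed adjacent to the peptide and sfGFP distal.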

| Sequence | protein stability index (Saccharomyces cerevisiae [1]) | protein stability index (Saccharomyces cerevisiae [2]) |
| --- | --- | --- |
| CLVSIPILLFFR | 0.057 | 0.556 |
| CLVSLPILLFFRE | 0.148 | 0.582 |
| CLVSLPILLFFRN | 0.0659 | 0.531 |
| CLVSLPILLFMR | 0.0691 | 0.56 |
| CLVSLPILLMFR | 0.0704 | 0.581 |
| CLVSLPILLPFR | 0.642 | 0.67 |
| CLVSLPILLRFR | 0.153 | 0.647 |
| CLVSLPILMFFR | 0.0684 | 0.591 |
| CLVSLPILTFFR | 0.523 | 0.643 |
| CLVSLPNLLFFR | 0.11 | 0.685 |
| CQVSLPILLFFR | 0.0497 | 0.631 |
| GKYMCSVGCWFR | 0.406 | 0.674 |
| GLYICSVGCWFR | 0.181 | 0.539 |
| GLYLCSVGCWFR | 0.21 | 0.575 |
| GLYMCNVGCWFR | 0.385 | 0.676 |
| GLYMCPVGCWFR | 0.26 | 0.664 |
| GLYMCSFGCWFR | 0.239 | 0.665 |
| GLYMCSHGCWFR | 0.435 | 0.695 |
| GLYMCSVCCWFR | 0.47 | 0.548 |
| GLYMCSVDCWFR | 0.574 | 0.615 |
| GLYMCSVGCWFF | 0.473 | 0.532 |
| GLYMCSVGCWFK | 0.291 | 0.628 |
| GLYMCSVGCWFRF | 0.166 | 0.636 |

| Sequence | protein stability index (Saccharomyces cerevisiae [1]) | protein stability index (Saccharomyces cerevisiae [2]) |
| --- | --- | --- |
| GLYMCSVGCWFRN | 0.286 | 0.584 |
| GLYMCSVGCWFS | 0.381 | 0.445 |
| GLYMCSVGCWVR | 0.215 | 0.341 |
| GLYMCSVGGWFR | 0.644 | 0.674 |
| GLYMCSVGHWFR | 0.656 | 0.679 |
| GLYMCSVGSWFR | 0.634 | 0.69 |
| GLYMCSVYCWFR | 0.255 | 0.374 |
| GLYMHSVGCWFR | 0.255 | 0.706 |
| GLYMLSVGCWFR | 0.246 | 0.464 |
| GSLRVLLPLYFR | 0.242 | 0.685 |
| HLYMCSVGCWFR | 0.401 | 0.63 |
| LLVSLPILLFFR | 0.0951 | 0.561 |
| PLVSLPILLFFR | 0.138 | 0.661 |
| QLYMCSVGCWFR | 0.368 | 0.625 |
| RDTRLDAIYFRI | 0.563 | 0.644 |
| RFTRLDAIYFRI | 0.378 | 0.656 |
| RITRLDAIYFRI | 0.397 | 0.673 |
| RMLRVLLPLYFR | 0.359 | 0.656 |
| RNLRVLLPLYFR | 0.302 | 0.682 |
| RSLGVLLPLYFR | 0.321 | 0.691 |
| RSLRMLLPLYFR | 0.376 | 0.615 |
| RSLRVHLPLYFR | 0.157 | 0.67 |
| RSLRVILPLYFR | 0.197 | 0.675 |

| Sequence | protein stability index (Saccharomyces cerevisiae [1]) | protein stability index (Saccharomyces cerevisiae [2]) |
| --- | --- | --- |
| RSLRVLLKLYFR | 0.417 | 0.616 |
| RSLRVLLPLKFR | 0.431 | 0.67 |
| RSLRVLLPLRFR | 0.41 | 0.661 |
| RSLRVLLPLYAR | 0.348 | 0.474 |
| RSLRVLLPLYFD | 0.491 | 0.63 |
| RSLRVLLPLYFI | 0.255 | 0.528 |
| RSLRVLLPLYFK | 0.25 | 0.633 |
| RSLRVLLPLYFM | 0.328 | 0.42 |
| RSLRVLLPLYFQ | 0.431 | 0.615 |
| RSLRVLLPLYFRA | 0.244 | 0.593 |
| RSLRVLLPLYFRI | 0.184 | 0.484 |
| RSLRVLLPLYFRT | 0.268 | 0.655 |
| RSLRVLLPLYFS | 0.246 | 0.352 |
| RSLRVLLPLYFT | 0.265 | 0.478 |
| RSLRVLLPLYKR | 0.602 | 0.662 |
| RSLRVLLPSYFR | 0.65 | 0.668 |
| RSLRVLLRLYFR | 0.391 | 0.625 |
| RSLRVLLSLYFR | 0.452 | 0.643 |
| RSLRVLLVLYFR | 0.269 | 0.389 |
| RSLRVLRPLYFR | 0.257 | 0.684 |
| RSLRVLYPLYFR | 0.279 | 0.67 |
| RSLRVYLPLYFR | 0.268 | 0.678 |
| RSLRWLLPLYFR | 0.427 | 0.642 |

| Sequence | protein stability index (Saccharomyces cerevisiae [1]) | protein stability index (Saccharomyces cerevisiae [2]) |
| --- | --- | --- |
| RSLRYLLPLYFR | 0.378 | 0.671 |
| RVPRLDAIYFRI | 0.389 | 0.669 |
| RVTDLDAIYFRI | 0.636 | 0.678 |
| RVTLLDAIYFRI | 0.455 | 0.662 |
| RVTRGDAIYFRI | 0.553 | 0.693 |
| RVTRKDAIYFRI | 0.564 | 0.664 |
| RVTRLDAGYFRI | 0.673 | 0.702 |
| RVTRLDAIKFRI | 0.66 | 0.685 |
| RVTRLDAISFRI | 0.691 | 0.727 |
| RVTRLDAIWFRI | 0.22 | 0.676 |
| RVTRLDAIYFQI | 0.292 | 0.305 |
| RVTRLDAIYFRIW | 0.234 | 0.577 |
| RVTRLDAIYFRL | 0.395 | 0.7 |
| RVTRLDAIYFRQ | 0.533 | 0.589 |
| RVTRLDAIYPRI | 0.693 | 0.731 |
| RVTRLDAVYFRI | 0.442 | 0.68 |
| RVTRLDAWYFRI | 0.678 | 0.717 |
| RVTRLDKIYFRI | 0.283 | 0.51 |
| RVTRLMAIYFRI | 0.155 | 0.295 |
| RVTRSDAIYFRI | 0.525 | 0.695 |
